The source of these data is article PMC2635478 (Traffic (Copenhagen, Denmark), 2008).

Numbering of substitutions follows the chain as printed. Like-named read-outs stand apart in the source and are kept apart here.

Data set [1] deals with the molecule itself. Kind of data set: SEC.
Data set [2] deals with the molecule itself. Kind of data set: SEC. The source holds these as a separate data set.

B1: NEM-modified PITPβ (phosphatidylinositol transfer protein beta) in cytosol of NEM-treated HL60 cells (natural protein, human (endogenous in HL60), UniProt P48739 1-271, looked up)
chain: MVLIKEFRVVLPCSVQEYQVGQLYSVAEASKNETGGGEGIEVLKNEPYEKDGEKGQYTHKIYHLKSKVPAFVRMIAPEGSLVFHEKAWNAYPYCRTIVTNEYMKDDFFIKIETWHKPDLGTLENVHGLDPNTWKTVEIVHIDIADRSQVEPADYKADEDPALFQSVKTKRGPLGPNWKKELANSPDCPQMCAYKLVTIKFKWWGLQSKVENFIQKQEKRIFTNFHRQLFCWIDKWIDLTMEDIRRMEDETQKELETMRKRGSVRGTSAADV
modifications: C95 alkylated by N-ethylmaleimide (NEM)
As to B1, the “stoichiometry N” value in “SEC [1]” turned out to be 2.

B2: NEM-modified PITPβ (phosphatidylinositol transfer protein beta) in cytosol of NEM-treated PC12 cells (natural protein, rat (endogenous in PC12), UniProt P53812 1-271, looked up)
chain: B1 chain with K50N, S184T, Q189K, F224L, R260K, V271A
modifications: C95 alkylated by N-ethylmaleimide (NEM)
Consider B2, for which the “stoichiometry N” value in the data set “SEC [2]” amounted to 2.
